Assays:
Experiment in all cases: pull-down binding Z-score (relative to library population); higher = stronger binding
[1] = tested on: TO-3-N3 (biotin conjugate); conditions: RNA library: Library-2
Method in brief: (§1)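 Streptavidin beads with 100 pmol of biotin-conjugated small molecule were incubated for 60 min at 25 °C with 1 μg of heat-folded Cy5- or Cy3-end-labelled RNA library in phosphate/NaCl/KCl buffer. Bound RNA was eluted in hot SDS after three washes and hybridised to a DNA barcode microarray at 55.5 °C for 20 h. Each binding score is a library-referenced Z-score, computed after beads-only subtraction and a trimmed mean of barcoded replicate probes.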

[2] = tested on: TO-3-N3-2 (biotin conjugate); conditions: RNA library: Library-2
Method in brief: as §1

[3] = tested on: TO-N3-2 (biotin conjugate); conditions: RNA library: Library-2
Method in brief: as §1

[4] = tested on: TO-N3 (biotin conjugate); conditions: RNA library: Library-2
Method in brief: as §1

[5] = tested on: G-clamp-N3 (biotin conjugate); conditions: RNA library: Library-1 (pre-miRNA loops + repeats)
Method in brief: as §1

Sequence	pull-down binding Z-score [1]	pull-down binding Z-score [2]	pull-down binding Z-score [3]	pull-down binding Z-score [4]	pull-down binding Z-score [5]
GUCCGGGUGGGUUCCGGCA [hsa-mir-657]	1.07	1.29	2.1	1.33	-2.05
GUCCUGACUGCGUGCCAGGGGC [hsa-mir-3650]	-0.235	-0.518	0.488	-0.175	0.903
GUCCUGCCCUCACUGGGAACCCCCUUCCCUCUGGGUACCAG [hsa-mir-1324]	1.48	0.477	1.39	1.88	-0.948
GUCUCGGUCCUUUGGAACGUGGC [hsa-mir-4470]	-0.39	-0.387	-0.476	-0.607	-0.378
GUCUGCCAAAACCUUGGCAGAC [hsa-mir-3913-1]	-0.531	-0.517	-1.22	-1.02	0.901
GUCUGCCAAGGUUUUGGCAGAC [hsa-mir-3913-2]	-0.58	-0.539	-1.2	-0.992	0.558
GUCUGGCAUUGUCUGAUAUAC [hsa-mir-1294]	1.12	0.316	0.408	1.2	0.671
GUCUGUCACUGGGGAAGUC [hsa-mir-4682]	0.735	0.276	0.993	1.19	1.71
GUCUGUUUUCUUCAUGGUUUUCUGAC [hsa-mir-6759]	-0.779	-0.481	-0.557	-0.999	0.125
GUCUUGAUCCCCCACCCCAAGAC [hsa-mir-642b]	-0.257	-0.299	0.091	-0.41	-1.37
GUCUUGGGGUGGGGGAUCAAGAC [hsa-mir-642a]	2.99	2.9	1.89	2.61	0.431
GUGAACAUUGCAU [hsa-mir-4301]	-0.353	-0.219	-0.237	-0.356	-0.223
GUGAACCUGAAUUUGCCUUGGGUUUCCU [hsa-mir-670]	-0.509	-0.132	1.76	0.262	-0.325
GUGACGCCGCGAAGUGCAC [hsa-mir-3147]	0.25	0.172	0.997	0.406	1.18
GUGAGAGAUGCUUCUAGAUCCAGGAGGCAGACCUCAA [hsa-mir-4325]	0.524	0.123	0.879	0.822	-0.658
GUGAGAUGUUCAUACAAUCCCUCAC [hsa-mir-216a]	-0.788	-0.438	-0.17	-0.852	-1.01
GUGAGCGCAGGUCUUUGGCAC [hsa-mir-4450]	0.104	0.39	0.729	0.339	2.36
GUGAGCUCAGCUCCCUGCCUCAC [hsa-mir-3622b]	-0.00258	-0.173	0.811	0.138	-1.4
GUGAGCUGGAAAUGGGGUGCUAC [hsa-mir-598]	1.46	0.651	0.962	1.5	1.37

Sequence	pull-down binding Z-score [1]	pull-down binding Z-score [2]	pull-down binding Z-score [3]	pull-down binding Z-score [4]	pull-down binding Z-score [5]
GUGAGGCAGGGAGCUGAGCUCAC [hsa-mir-3622a]	0.401	0.142	1.06	0.698	-0.0355
GUGAGGUAUUUUAGUAACAUCAC [hsa-mir-125b-2]	-0.818	-0.536	-0.794	-0.969	0.629
GUGAGUGUCUCUUGUCGC [hsa-mir-1281]	0.334	-0.252	0.25	0.328	1.22
GUGAGUUAGAAAAGCUCAAUUCAC [hsa-mir-4457]	-0.654	-0.365	-0.405	-0.662	-0.276
GUGAUAGGAUUUAUCAC [hsa-mir-4999]	-0.154	-0.295	-0.819	-0.436	-0.554
GUGAUAGUAAUAAAGUCUCAU [hsa-mir-135a-2]	-0.314	-0.218	-0.0282	-0.32	-0.286
GUGAUGUGAGGAGCAACAGGCACCCUCCU [hsa-mir-6792]	-0.0611	0.254	0.846	0.246	-0.596
GUGAUUACAUUAAAACUUAAAAUUUCAC [hsa-mir-4719]	-0.0289	-0.244	-0.663	-0.105	-1.01
GUGAUUGUCUUCCUCACUCAAUCAG [hsa-mir-4704]	0.145	-0.174	-0.0609	0.0942	-1.11
GUGCACUUCAUUUACGAUGUAG [hsa-mir-1193]	0.515	0.167	0.478	0.741	-0.679
GUGCAGCUUGUACCUGCAC [hsa-mir-1293]	-0.154	-0.574	-0.592	-0.0262	-0.00619
GUGCUGGCAGUGGCCACGUAA [hsa-mir-4276]	-0.0231	0.0605	1.46	0.642	0.096
GUGGAACUGACCUGCCCCCUUUCUC [hsa-mir-6817]	0.152	0.124	0.882	0.517	-1.77
GUGGAAUGCAAAGUCCCAC [hsa-mir-5698]	-0.264	-0.36	-0.551	-0.332	-0.39
GUGGACAGAGGCAAAACUCUAACUUC [hsa-mir-6078]	-0.31	-0.41	0.491	0.0919	-1.45
GUGGAGCCAAAAUUAGAAGGGCCAAAAUUCUACCUGGCCCACUACCACAG [hsa-mir-3978]	-0.3	0.318	0.705	-0.00817	-0.932
GUGGAGGGUGGUGCCGCCGGGGCCGGGCGCUGUUUCAGCUCGCUUCUCCCCCCAC [hsa-mir-1224]	2.06	1.31	2.36	2.71	0.608
GUGGAGGUAGGCGAGAGUAAUAUAAUUUCUCCAGGAGAACAUCUGAGAGGGGAAGUUGCUUUCCUGCCCUGGCCCUUUCAC [hsa-mir-6076]	0.431	0.000368	1.37	0.735	-0.319

From the supplement of paper PMC11865577
